Residue numbers refer to the chain shown, from its start. Each block holds one binder with its values, some of them ahead of it.
Target: T1, human Complement component 5 (C5) (human, UniProt P01031 19-1676, limits assumed)
T1 construct: also called human C5
Experiment: ELISA, binding to human C5 at pH 7.4 (C5 ELISA, absorbance at 450 nm)
Procedure: The exemplary antibodies were tested for binding to human C5 at pH 7.4 using ELISA.

T1 sequence (P01031 19-1676 limits assumed): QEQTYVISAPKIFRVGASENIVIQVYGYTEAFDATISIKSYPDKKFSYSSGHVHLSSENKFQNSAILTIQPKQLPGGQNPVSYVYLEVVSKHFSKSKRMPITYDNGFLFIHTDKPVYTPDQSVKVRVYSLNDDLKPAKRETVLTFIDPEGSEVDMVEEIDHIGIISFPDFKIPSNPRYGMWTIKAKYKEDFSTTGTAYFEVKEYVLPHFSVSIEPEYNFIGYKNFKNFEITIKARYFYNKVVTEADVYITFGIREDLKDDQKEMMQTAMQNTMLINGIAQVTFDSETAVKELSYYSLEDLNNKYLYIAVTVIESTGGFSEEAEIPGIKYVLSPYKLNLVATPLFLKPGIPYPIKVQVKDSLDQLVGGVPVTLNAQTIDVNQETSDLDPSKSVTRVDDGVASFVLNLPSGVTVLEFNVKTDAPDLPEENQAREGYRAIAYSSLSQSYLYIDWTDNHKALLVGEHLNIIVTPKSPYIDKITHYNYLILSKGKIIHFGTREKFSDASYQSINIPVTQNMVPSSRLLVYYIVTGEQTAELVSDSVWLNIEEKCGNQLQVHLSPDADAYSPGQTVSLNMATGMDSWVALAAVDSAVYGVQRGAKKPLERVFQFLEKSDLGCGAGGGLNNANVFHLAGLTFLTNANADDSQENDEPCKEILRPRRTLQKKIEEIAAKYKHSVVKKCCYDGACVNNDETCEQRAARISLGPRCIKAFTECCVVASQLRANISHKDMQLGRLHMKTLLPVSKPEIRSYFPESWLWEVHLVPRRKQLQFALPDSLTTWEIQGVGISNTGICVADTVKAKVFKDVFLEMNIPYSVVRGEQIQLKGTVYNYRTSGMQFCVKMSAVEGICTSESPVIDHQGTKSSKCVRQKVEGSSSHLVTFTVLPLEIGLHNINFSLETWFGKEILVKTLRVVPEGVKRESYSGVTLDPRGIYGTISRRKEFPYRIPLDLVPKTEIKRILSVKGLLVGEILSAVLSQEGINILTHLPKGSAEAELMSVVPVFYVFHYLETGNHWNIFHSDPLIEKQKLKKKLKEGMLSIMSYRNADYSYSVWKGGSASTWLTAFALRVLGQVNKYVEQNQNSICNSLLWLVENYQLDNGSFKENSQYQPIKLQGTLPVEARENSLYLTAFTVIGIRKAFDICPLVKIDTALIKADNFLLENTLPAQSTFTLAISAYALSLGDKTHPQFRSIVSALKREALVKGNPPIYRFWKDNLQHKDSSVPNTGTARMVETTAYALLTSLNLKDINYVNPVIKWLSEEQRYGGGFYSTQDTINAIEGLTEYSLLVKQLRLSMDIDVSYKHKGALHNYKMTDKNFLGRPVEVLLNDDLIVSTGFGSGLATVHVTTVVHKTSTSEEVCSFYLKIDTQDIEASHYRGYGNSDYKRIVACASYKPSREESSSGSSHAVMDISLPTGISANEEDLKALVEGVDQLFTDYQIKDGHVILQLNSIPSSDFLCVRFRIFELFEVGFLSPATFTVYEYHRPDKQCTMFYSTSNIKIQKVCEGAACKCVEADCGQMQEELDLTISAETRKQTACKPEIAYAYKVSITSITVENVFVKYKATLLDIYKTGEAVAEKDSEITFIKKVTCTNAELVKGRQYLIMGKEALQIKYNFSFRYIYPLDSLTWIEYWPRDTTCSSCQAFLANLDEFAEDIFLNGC

- EC50: 0.52 µg/mL
B2: ATG-012 (antibody, IgG2)
heavy: QVQLVQSGAEVKKPGASVKVSCKASGHIFTDFYMQWVRQAPGQGLEWMGEILPGTGHTEYAQKFQGRVTMTRDTSISTVYMEVRRLRSDDTAVYYCARYFFGSTPNWYFDVWGQGTLVTVSSASTKGPSVFPLAPCSRSTSESTAALGCLVKDYFPEPVTVSWNSGALTSGVHTFPAVLQSSGLYSLSSVVTVPSSNFGTQTYTCNVDHKPSNTKVDKTVERKCCVECPPCPAPPVAGPSVFLFPPKPKDTLYITREPEVTCVVVDVSQEDPEVQFNWYVDGVEVHNAKTKPREEQFNSTYRVVSVLTVLHQDWLNGKEYKCKVSNKGLPSSIEKTISKAKGQPREPQVYTLPPSQEEMTKNQVSLTCLVKGFYPSDIAVEWESNGQPENNYKTTPPVLDSDGSFFLYSRLTVDKSRWQEGNVFSCSVMHEALHNHYTQKSLSLSLGK
light: EIVMTQSPSSLSASVGDRVTITCGATENIYGALNWYQHEPGKAPKLLIYGASNRYTGVTSRFSGSGSGTDFTLTISTLQPEDFATYYCQQVLNTPVSFGGGTKVDIKRTVAAPSVFIFPPSDEQLKSGTASVVCLLNNFYPREAKVQWKVDNALQSGNSQESVTEQDSKDSTYSLSSTLTLSKADYEKHKVYACEVTHQGLSSPVTKSFNRGEC
notes: Same variable regions as ATG-008; Expressed in Expi CHO cells; also called anti-C5 monoclonal antibody ATG-012

- EC50: 0.034 µg/mL
- EC50 (read off the curve): ~0.03 µg/mL
B4: ATG-006 (antibody, V domains shown)
VH: QVQLVQSGAEVKKPGASVKVSCKASGYIFTDFYMQWVRQAPGQGLEWMGEILPGTGSTEYAQKFQGRVTMTRDTSISTVYMEVRRLRSDDTAVYYCARYFFGSTPNWYFDVWGQGTLVTVSS
VL: EIVMTQSPSSLSASVGDRVTITCGATENIYGALNWYQHEPGKAPKLLIYGASNRYTGVTSRFSGSGSGTDFTLTISTLQPEDFATYYCQQVLNTPVSFGGGTKVDIKR
notes: Expressed in Expi CHO cells; also called anti-C5 monoclonal antibody ATG-006

- EC50: 0.041 µg/mL
- EC50 (read off the curve): ~0.04 µg/mL
B5: ATG-005 (antibody, V domains shown)
VH: B4 VH with D31N, F32Y, Y33W
VL: B4 VL
notes: Expressed in Expi CHO cells; also called anti-C5 monoclonal antibody ATG-005

Continued, binder first:

B1: ATG-008 (antibody, IgG2)
heavy: B2 heavy with Y253M, T255S, E257T, M429L, N435S
light: B2 light
notes: Expressed in Expi CHO cells; also called anti-C5 monoclonal antibody ATG-008
- EC50: 0.09 µg/mL

B3: ATG-001 (antibody, V domains shown)
VH: B4 VH with D31N, F32Y, Y33W
VL: B4 VL with R54L, Y55A, T56D, Q90N, V96L
notes: Expressed in Expi CHO cells; also called anti-C5 monoclonal antibody ATG-001
- EC50: 0.099 µg/mL

Reference: patent publication US20210238268A1 (ATARGA, published 2021)
